Data reported in the supplement of paper PMC10724198.
± gives the standard deviation of the averaged measurements.

Legend:
[1] = system: Saccharomyces cerevisiae; test: protein stability index of tFT-peptide fusion (C-terminal peptide) (PSI (0-1 scale)); higher = more stable (slower turnover)
Experimental: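 MPS profiling in S. cerevisiae of the tFT-X12 degron library: putative degron peptides plus stable controls, 12 aa, fused to the C-terminus of a sfGFP-mCherry timer. Cells are FACS-sorted into 8 mCherry/sfGFP bins and deep-sequenced. PSI runs from 0 (unstable) to 1 (stable). Backgrounds are wild type, das1Δ and doa10Δ at 30 °C, and wild type, das1Δ, cdc34-1 and cdc53-1 at 37 °C; 2-3 technical replicates each.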

[2] = system: Saccharomyces cerevisiae; test: as above; settings: genetic background: wild type; temperature: 30 C
[3] = genetic background: cdc34-1, temperature: 37 C
[4] = genetic background: cdc53-1, temperature: 37 C
[5] = genetic background: das1 deletion, temperature: 30 C
[6] = genetic background: das1 deletion, temperature: 37 C
[7] = genetic background: doa10 deletion, temperature: 30 C
[8] = genetic background: wild type, temperature: 30 C
[9] = genetic background: wild type, temperature: 37 C
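Further: PSI is a weighted mean of sequencing reads over stability bins, variants kept only with over 10 reads, mCherry proximal and sfGFP distal, peptide attached via GGGS linker.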

Row | Sequence | protein stability index [1, 3] | protein stability index [1, 4] | protein stability index [1, 5] | protein stability index [1, 6] | protein stability index [1, 7] | protein stability index [1, 8] | protein stability index [1, 9] | protein stability index [2]
1 | IKRLKEVARHVS | 0.623 ± 0.057 | 0.706 ± 0.017 | 0.645 ± 0.03 | 0.694 ± 0.0085 | 0.265 ± 0.019 | 0.256 ± 0.031 | 0.4381 ± 0.0021 | 0.44 ± 0.054
2 | MRVYLVLWADSC | 0.236 ± 0.034 | 0.345 ± 0.026 | 0.197 ± 0.015 | 0.361 ± 0.017 | 0.19 ± 0.015 | 0.184 ± 0.0039 | 0.337 ± 0.00094 | 0.247 ± 0.058
3 | FPGPPSPPPSYF | 0.699 ± 0.048 | 0.776 ± 0.001 | 0.639 ± 0.01 | 0.766 ± 0.0078 | 0.6435 ± 0.0011 | 0.6466 ± 0.0022 | 0.7451 ± 0.0065 | 0.706 ± 0.011
4 | VLDFSVPRHVLH | 0.696 ± 0.014 | 0.7655 ± 0.0041 | 0.66 ± 0.0056 | 0.7364 ± 0.0016 | 0.661 ± 0.013 | 0.678 ± 0.035 | 0.7472 ± 0.0033 | 0.707 ± 0.024
5 | LLSFYFVLAYMV | 0.357 ± 0.034 | 0.393 ± 0.026 | 0.32 ± 0.035 | 0.4765 ± 0.00078 | 0.197 ± 0.024 | 0.179 ± 0.02 | 0.3 ± 0.0065 | 0.28 ± 0.056
6 | ARRGHNCAAVFL | 0.6953 ± 0.0068 | 0.7426 ± 0.0071 | 0.666 ± 0.026 | 0.7447 ± 0.0047 | 0.65 ± 0.022 | 0.663 ± 0.024 | 0.718 ± 0.0074 | 0.643 ± 0.3
7 | SFVCFSYYIVNI | 0.453 ± 0.021 | 0.482 ± 0.005 | 0.377 ± 0.021 | 0.564 ± 0.022 | 0.381 ± 0.023 | 0.363 ± 0.027 | 0.548 ± 0.049 | 0.51 ± 0.03
8 | VFLRRFGVPWVF | 0.594 ± 0.016 | 0.664 ± 0.019 | 0.493 ± 0.029 | 0.661 ± 0.016 | 0.198 ± 0.0071 | 0.227 ± 0.02 | 0.429 ± 0.0074 | 0.365 ± 0.017
9 | VCSCLVLVFCCC | 0.232 ± 0.018 | 0.222 ± 0.018 | 0.232 ± 0.036 | 0.318 ± 0.0068 | 0.207 ± 0.025 | 0.237 ± 0.015 | 0.285 ± 0.024 | 0.298 ± 0.037
10 | GRGFVLSVAVVA | 0.404 ± 0.011 | 0.453 ± 0.031 | 0.395 ± 0.034 | 0.502 ± 0.0094 | 0.363 ± 0.0089 | 0.395 ± 0.021 | 0.467 ± 0.0049 | 0.435 ± 0.012
11 | VCLRICLVTLMM | 0.3 ± 0.019 | 0.444 ± 0.011 | 0.284 ± 0.032 | 0.4615 ± 0.0026 | 0.2405 ± 0.0017 | 0.261 ± 0.033 | 0.4126 ± 0.0014 | 0.428 ± 0.03
12 | WFCYFSLYVFLL | 0.0995 ± 0.02 | 0.149 ± 0.0067 | 0.168 ± 0.027 | 0.24 ± 0.0052 | 0.133 ± 0.012 | 0.105 ± 0.019 | 0.153 ± 0.026 | 0.214 ± 0.095
13 | WILIGVRFSCFG | 0.109 ± 0.0085 | 0.233 ± 0.069 | 0.189 ± 0.034 | 0.339 ± 0.015 | 0.159 ± 0.013 | 0.165 ± 0.021 | 0.276 ± 0.018 | 0.299 ± 0.0058
14 | AFVVPLFLCCCG | 0.1836 ± 0.0015 | 0.165 ± 0.013 | 0.212 ± 0.025 | 0.2768 ± 0.0025 | 0.184 ± 0.014 | 0.209 ± 0.014 | 0.235 ± 0.0042 | 0.255 ± 0.0048
15 | FAVTRVHLACWG | 0.453 ± 0.049 | 0.464 ± 0.0047 | 0.368 ± 0.033 | 0.493 ± 0.0079 | 0.3297 ± 0.0031 | 0.369 ± 0.03 | 0.466 ± 0.022 | 0.4649 ± 0.0013
16 | WALWGFVFWDWW | 0.402 ± 0.049 | 0.476 ± 0.016 | 0.377 ± 0.035 | 0.5133 ± 0.0029 | 0.3786 ± 0.0011 | 0.365 ± 0.023 | 0.501 ± 0.0078 | 0.497 ± 0.03
17 | KSSIGVWTLLIR | 0.282 ± 0.012 | 0.3 ± 0.026 | 0.337 ± 0.026 | 0.454 ± 0.022 | 0.564 ± 0.02 | 0.334 ± 0.035 | 0.423 ± 0.022 | 0.494 ± 0.016
18 | FCICRFLFIFLG | 0.44 ± 0.018 | 0.463 ± 0.012 | 0.358 ± 0.033 | 0.4917 ± 0.0036 | 0.3325 ± 0.0029 | 0.294 ± 0.029 | 0.411 ± 0.0063 | 0.336 ± 0.049
19 | IVRSLFGYLCVV | 0.571 ± 0.0099 | 0.609 ± 0.0076 | 0.524 ± 0.015 | 0.633 ± 0.0095 | 0.427 ± 0.0099 | 0.437 ± 0.022 | 0.569 ± 0.0066 | 0.467 ± 0.037
20 | LLYYQVFKTRRL | 0.674 ± 0.021 | 0.686 ± 0.037 | 0.63 ± 0.026 | 0.696 ± 0.034 | 0.3565 ± 0.0012 | 0.384 ± 0.022 | 0.5958 ± 0.0036 | 0.406 ± 0.25

Row | Sequence | protein stability index [1, 3] | protein stability index [1, 4] | protein stability index [1, 5] | protein stability index [1, 6] | protein stability index [1, 7] | protein stability index [1, 8] | protein stability index [1, 9] | protein stability index [2]
21 | KRMVEKNKKKIN | 0.57 ± 0.063 | 0.747 ± 0.087 | 0.613 ± 0.029 | 0.729 ± 0.024 | 0.153 ± 0.024 | 0.201 ± 0.037 | 0.368 ± 0.012 | 0.31 ± 0.036
22 | LVSSYVPFFFAL | 0.6057 ± 0.0033 | 0.717 ± 0.046 | 0.664 ± 0.0071 | 0.752 ± 0.011 | 0.25 ± 0.0073 | 0.29 ± 0.031 | 0.388 ± 0.015 | 0.342 ± 0.011
23 | PAPANRPTPRPV | 0.666 ± 0.041 | 0.7177 ± 0.006 | 0.661 ± 0.03 | 0.722 ± 0.011 | 0.652 ± 0.014 | 0.6256 ± 0.006 | 0.7517 ± 0.0059 | 0.7 ± 0.028
24 | RLRHPPRLSTLC | 0.635 ± 0.025 | 0.743 ± 0.00093 | 0.629 ± 0.029 | 0.73873 ± 0.00026 | 0.306 ± 0.018 | 0.338 ± 0.023 | 0.594 ± 0.069 | 0.463 ± 0.0095
25 | IGSFFLFFLLIF | 0.281 ± 0.025 | 0.291 ± 0.029 | 0.3 ± 0.025 | 0.383 ± 0.0054 | 0.354 ± 0.027 | 0.245 ± 0.045 | 0.3726 ± 0.0017 | 0.384 ± 0.02
26 | LVYLVCAYSECE | 0.44 ± 0.015 | 0.463 ± 0.039 | 0.275 ± 0.039 | 0.477 ± 0.0062 | 0.242 ± 0.019 | 0.274 ± 0.0093 | 0.477 ± 0.0088 | 0.332 ± 0.02
27 | LLLHFMFSIFWF | 0.3811 ± 0.00039 | 0.375 ± 0.032 | 0.327 ± 0.034 | 0.4583 ± 0.0021 | 0.378 ± 0.011 | 0.324 ± 0.016 | 0.42 ± 0.011 | 0.378 ± 0.023
28 | VYRVTGSWLMWV | 0.511 ± 0.059 | 0.5758 ± 0.0051 | 0.483 ± 0.021 | 0.527 ± 0.0078 | 0.353 ± 0.03 | 0.357 ± 0.019 | 0.4879 ± 0.0027 | 0.434 ± 0.007
29 | VRLYLRSCVVES | 0.347 ± 0.061 | 0.368 ± 0.0011 | 0.228 ± 0.029 | 0.437 ± 0.0094 | 0.181 ± 0.0071 | 0.217 ± 0.026 | 0.4148 ± 0.0031 | 0.32 ± 0.021
30 | SLARLRRICFNT | 0.632 ± 0.042 | 0.685 ± 0.0072 | 0.648 ± 0.031 | 0.719 ± 0.023 | 0.254 ± 0.011 | 0.27 ± 0.042 | 0.469 ± 0.021 | 0.3604 ± 0.0024
31 | ILLICLQFFNLF | 0.427 ± 0.057 | 0.544 ± 0.012 | 0.394 ± 0.035 | 0.5269 ± 0.0039 | 0.3502 ± 0.00069 | 0.36 ± 0.018 | 0.505 ± 0.0075 | 0.4481 ± 0.0036
32 | TNEWMDVKVFCY | 0.668 ± 0.0073 | 0.701 ± 0.052 | 0.499 ± 0.049 | 0.676 ± 0.0097 | 0.449 ± 0.028 | 0.486 ± 0.04 | 0.6398 ± 0.0051 | 0.491 ± 0.088
33 | LFKFCLGIPLFL | 0.51 ± 0.026 | 0.522 ± 0.029 | 0.412 ± 0.037 | 0.576 ± 0.006 | 0.4179 ± 0.004 | 0.402 ± 0.029 | 0.559 ± 0.014 | 0.479 ± 0.038
34 | LLFTFSLSFFFR | 0.405 ± 0.036 | 0.467 ± 0.0087 | 0.445 ± 0.048 | 0.438 ± 0.0076 | 0.458 ± 0.018 | 0.42 ± 0.022 | 0.45 ± 0.022 | 0.445 ± 0.014
35 | DVLLVVVLGRFL | 0.403 ± 0.058 | 0.563 ± 0.063 | 0.344 ± 0.03 | 0.5481 ± 0.0036 | 0.322 ± 0.043 | 0.312 ± 0.027 | 0.535 ± 0.0089 | 0.44 ± 0.066
36 | RVGSSLIVVYCV | 0.452 ± 0.024 | 0.461 ± 0.017 | 0.264 ± 0.034 | 0.502 ± 0.0096 | 0.207 ± 0.0045 | 0.238 ± 0.023 | 0.427 ± 0.018 | 0.337 ± 0.022
37 | REGDLLKFKMRP | 0.6854 ± 0.0054 | 0.727 ± 0.008 | 0.637 ± 0.024 | 0.716 ± 0.018 | 0.637 ± 0.037 | 0.639 ± 0.015 | 0.703 ± 0.027 | 0.725 ± 0.067
38 | LCGGEWVVWVKG | 0.645 ± 0.023 | 0.7321 ± 0.0055 | 0.557 ± 0.02 | 0.721 ± 0.012 | 0.211 ± 0.0085 | 0.234 ± 0.026 | 0.477 ± 0.029 | 0.342 ± 0.0052
39 | QHRAIKIEIKIN | 0.439 ± 0.024 | 0.666 ± 0.018 | 0.571 ± 0.048 | 0.672 ± 0.02 | 0.0613 ± 0.035 | 0.0582 ± 0.013 | 0.0578 ± 0.011 | 0.091 ± 0.0089
